# Measurements taken from patent US9926369B2, “Methods for treating hepatocellular cancer by administering an anti-Ang-2 antibody” (Regeneron Pharmaceuticals, Inc., priority 2009, dated 2018).
# Columns and labels:
# [1] = tested on: COLO 205 tumor vessel perfusion; assay: Tumor perfusion by contrast-enhanced micro-ultrasound, COLO 205 tumors; format: in vivo, mice; settings: treated for 24 hrs
# Experimental: To determine whether the combination of H1H685P+VEGF Trap has a greater effect on tumor vessel function than the single agents, a micro-ultrasound (VisualSonics' Vevo 770 imaging system) was used to assess changes in tumor perfusion. COLO 205 tumors were grown to ˜125 mm^3 and mice were then treated for 24 hrs with H1H685P, VEGF Trap or the combination of both agents. Following treatment, tumor vessel perfusion was determined based on contrast-enhanced micro-ultrasound 2D image acquisition and analysis of a “wash-in” curve, which represents the amount of contrast agent entering the tumor. Average (mean+/−standard deviation) tumor perfusion was calculated for each group. Percent decrease was calculated from comparison to the Fc control group.
# [2] = biological target: T1, hAng-1 WT binding to Tie-2 (Homo sapiens, UniProt Q15389); assay: ELISA blocking of full-length hAng-1 WT binding to hTie-2-mFc; format: biochemical; settings: 0.6 nM hAng-1-His
# T1 construct: Full-length human Ang-2 or Ang-1 protein conjugated to 6× histidine tag (R&D Systems, Minneapolis, Minn.); purchased R&D Systems
# T1 sequence (Q15389 20-498 limits assumed): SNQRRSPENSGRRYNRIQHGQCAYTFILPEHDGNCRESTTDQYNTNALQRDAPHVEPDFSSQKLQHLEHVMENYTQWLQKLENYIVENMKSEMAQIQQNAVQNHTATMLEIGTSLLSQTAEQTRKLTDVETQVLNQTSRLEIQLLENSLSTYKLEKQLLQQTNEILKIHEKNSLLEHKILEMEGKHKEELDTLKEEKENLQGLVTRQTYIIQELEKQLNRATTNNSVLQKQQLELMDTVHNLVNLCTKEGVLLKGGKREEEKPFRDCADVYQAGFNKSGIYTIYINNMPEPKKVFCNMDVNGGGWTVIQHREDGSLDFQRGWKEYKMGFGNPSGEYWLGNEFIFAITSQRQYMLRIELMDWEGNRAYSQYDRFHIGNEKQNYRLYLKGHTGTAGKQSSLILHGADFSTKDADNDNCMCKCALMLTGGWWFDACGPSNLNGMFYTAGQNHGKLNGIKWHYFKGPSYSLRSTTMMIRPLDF
# Experimental: The ELISA experiments shown in this Example were conducted in a similar manner to the experiments of Example 5. Briefly, hTie-2-mFc (a chimeric construct consisting of human Tie-2 conjugated to mouse IgG; SEQ ID NO:525) was coated onto 96-well plates at a concentration of 2 μg/ml and incubated overnight followed by washing four times in wash buffer (PBS with 0.05% Tween-20). The plate was then blocked with PBS (Irvine Scientific, Santa Ana, Calif.) containing 0.5% BSA (Sigma-Aldrich Corp., St. Louis, Mo.) for one hour at room temperature. In a separate plate, purified anti-Ang-2 antibodies and control constructs, at a starting concentration of 300 nM, were serially diluted by a factor of three across the plate. Full-length human Ang-2 or Ang-1 protein conjugated to 6× histidine tag (R&D Systems, Minneapolis, Minn.) were added to a final concentration of 0.6 nM and incubated for one hour at room temperature. The antibody/antigen mixture was then added to the plate containing hTie-2-mFc and incubated for one hour at room temperature. Detection of Ang-2-His or Ang-1-His bound to hTie-2-mFc protein was determined with Horse-Radish Peroxidase (HRP) conjugated to a-Penta-His antibody (Qiagen, Valencia, Calif.) and developed by standard colorimetric response using tetramethylbenzidine (TMB) substrate (BD Biosciences, San Jose, Calif.). Absorbance was read at OD450 for 0.1 sec. […]
# hAng-2FD-mFc S-480-P = biological target: T2, hAng-2FD-mFc S-480-P (Homo sapiens, UniProt O15123, S480P); assay: Ang-2FD-mFc point mutant binding experiment (SPR), S-480-P; settings: S-480-P mutant captured; antibody/peptibody at 100 nM; 25° C.
# T2 construct: made in house
# T2 sequence (O15123 with tags, fused parts or gaps S480P): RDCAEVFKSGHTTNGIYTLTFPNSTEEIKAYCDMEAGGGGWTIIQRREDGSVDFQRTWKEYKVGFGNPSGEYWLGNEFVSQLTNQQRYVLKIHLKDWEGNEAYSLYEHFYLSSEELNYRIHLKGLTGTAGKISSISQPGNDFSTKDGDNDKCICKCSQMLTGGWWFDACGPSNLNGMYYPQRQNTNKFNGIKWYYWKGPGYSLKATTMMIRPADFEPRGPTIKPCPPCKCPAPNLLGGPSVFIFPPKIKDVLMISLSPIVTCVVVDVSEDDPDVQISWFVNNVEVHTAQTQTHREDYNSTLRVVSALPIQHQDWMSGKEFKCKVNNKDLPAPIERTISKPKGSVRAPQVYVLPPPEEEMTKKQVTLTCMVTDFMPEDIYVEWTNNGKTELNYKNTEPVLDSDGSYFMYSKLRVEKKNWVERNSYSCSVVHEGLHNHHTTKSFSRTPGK
# Source text: To further characterize binding between hAng2 and anti-hAng2 mAbs of the invention, seven variant hAng2-FD-mFc proteins were generated, each containing a single point mutation. Amino acids selected for mutation were based on the difference in sequence between hAng-2 and hAng-1 in the region that interacts with hTie-2 (FIG. 1). In particular, amino acids within the fibrinogen-like domain (FD) of Ang-2 which are believed to interact with Tie-2 based on crystal structure analysis, but which differ from the corresponding amino acid in Ang-1, were individually mutated to the corresponding hAng-1 residue. The results of this example indicate the amino acid residues of hAng-2 with which the Ang-2 preferential binding antibodies interact.
# In this experiment, each of the seven hAng-2FD-mFc mutant proteins were captured (˜147-283 RU) on an anti-mouse-Fc surface created through direct chemical coupling to a BIACORE™ chip. Then each Ang-2 antibody (or peptibody, as the case may be) at 100 nM was injected over the captured mFc-tagged hAng-2FD protein surface at a flowrate of 50 μl/min for 180 sec, and the dissociation of variant hAng2-FD-mFc and antibody was monitored in real time for 20 min at 25° C.
substance,measurement,setting,value
"H1H685P: human anti-Ang-2 antibody, HCVR/LCVR SEQ ID NOs 18/20; also referred to as mAb1 [Antibody H1H685P]",Relative Tumor Perfusion,[1]; mean ± SD,6.32 ± 2.81
same,% Decrease in Tumor Perfusion,[1]; vs Fc control,22%
same,IC50,[2],> 300 nM
same,Kd,hAng-2FD-mFc S-480-P,0.205 nM
same,RU,hAng-2FD-mFc S-480-P,161.13 RU
